Results: patent US20190241662A1 (ADAGENE, published 2019)

Key:
[1] = molecular target: T1, recombinant human CTLA4-Fc (human, UniProt P16410 36-162); test: ELISA; EC50 divided by the EC50 of TY21580
T1 construct: also called human CTLA4 fused with human FC fragment; CTLA4-Fc (Sino Biological, 11159-H03H)
T1 sequence (looked up): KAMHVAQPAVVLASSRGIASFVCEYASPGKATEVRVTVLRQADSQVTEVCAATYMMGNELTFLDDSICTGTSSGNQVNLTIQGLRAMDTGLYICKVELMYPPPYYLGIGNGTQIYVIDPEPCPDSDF
Description: (§1) Plates were blocked with PBS supplemented with 3% non-fat milk at 37° C. for 1 hour. After washing, 100 μL of 3-fold serial dilutions of antibodies were added to each well. After incubation at 37° C. for 1 hour, plates were washed four times, and 100 μL HRP conjugated anti-human IgG (Fab specific) (1:6000 dilution) was added to each well. Plates were incubated at 37° C. for 1 hour, washed four times, and then 50 μL TMB substrate solution was added to each well, and the plate was incubated at room temperature. […] The EC₅₀ was evaluated by fitting the ELISA data using the asymmetrical sigmoidal (five-parameter logistic equation) model of GraphPad Prism 6 software.

[2] = molecular target: T1, recombinant human CTLA4-Fc; test: ELISA, coated human CTLA4-Fc (as in Example 8)
Description: as §1

[3] = molecular target: T1, recombinant human CTLA4-Fc; test: ELISA, coated human CTLA4-Fc (as in Example 8); remark: listed apart in the source
Description: as §1

[4] = molecular target: T1, recombinant human CTLA4-Fc; test: ELISA; EC50 divided by the EC50 of TY21580; remark: listed apart in the source
Description: as §1

[5] = molecular target: T1, recombinant human CTLA4-Fc; test: ELISA; EC50 divided by the EC50 of TY21580; remark: listed apart in the source
Description: as §1

[6] = molecular target: T1, recombinant human CTLA4-Fc; test: ELISA, coated human CTLA4-Fc (as in Example 8); remark: listed apart in the source
Description: as §1

[7] = molecular target: T1, recombinant human CTLA4-Fc; test: ELISA, coated human CTLA4-Fc; EC50 divided by the EC50 of TY21580
Description: as §1
(§2) The purified activatable antibodies were treated with the proteases which recognize the cleavage sequences, and were then tested to determine whether removal of the masking peptide restored their activity.

[8] = molecular target: T1, recombinant human CTLA4-Fc; test: ELISA, coated human CTLA4-Fc
Description: as §1, §2

[9] = molecular target: T2, full-length human CTLA4 expressed on cells (human, UniProt P16410 36-223); test: flow cytometry blocking: HEK293F cells with human CTLA4, 100 nM antibody, then 100 nM CD80-Fc-Bio (blocked ligand); PBSA panel: Mean 157692, 26.3%
T2 construct: whole, on cells; also called HEK293F/hCTLA-4 cells; HEK293F/hCTLA4 cells
T2 sequence (looked up): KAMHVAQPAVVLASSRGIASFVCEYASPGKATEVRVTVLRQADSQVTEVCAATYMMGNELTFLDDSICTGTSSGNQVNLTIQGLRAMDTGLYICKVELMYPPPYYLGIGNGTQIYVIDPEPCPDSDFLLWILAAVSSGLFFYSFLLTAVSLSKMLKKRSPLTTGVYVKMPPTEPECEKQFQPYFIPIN
Description: (§3) Antibodies were also tested for their ability to block binding of CTLA4 to its cognate ligands CD80 and CD86 by flow cytometry. The plasmid encoding full-length human CTLA4 was transiently expressed in HEK293F cells. Cells were washed with staining buffer (PBSA buffer including 1.76 mM KH₂PO₄, 10.14 mM Na₂HPO₄.12H₂O, 2.68 mM KCl, 136.89 mM NaCl and 1% BSA), and resuspended in staining buffer containing 100 nM test antibodies. […] Cells were washed once, and analyzed by CytoFlex flow cytometry.

[10] = molecular target: T3, full-length mouse CTLA4 expressed on HEK293F cells (mouse, UniProt P09793 36-223); test: flow cytometry, transfected HEK293F cells [Cont.]
T3 construct: whole, on cells
Description: (§4) The affinities of the antibodies were also assessed against human and mouse CTLA4 transiently expressed on the surface of HEK293F cells (FIG. 2). Briefly, HEK293F cells were transfected with a plasmid expressing full-length human, monkey or mouse CTLA4 from a bicistronic IRES vector also encoding EGFP, and EGFP expression was used to identify the transfected cells. After 48 hours, the mammalian cell suspension (2×10⁵/well) was transferred to an Eppendorf tube, centrifuged, the supernatant was discarded, the cells were resuspended with 1 mL PBSA (to a density is 4×10⁶ cells/mL), and added to a 96 well plate. […] The cells were then washed once prior to analysis by flow cytometry (Beckman® CytoFlex).

[11] = molecular target: T2, full-length human CTLA4 expressed on …; test: flow cytometry blocking: HEK293F cells with human CTLA4, 100 nM antibody, then 100 nM CD86-Fc-Bio (blocked ligand); PBSA panel: Mean 10678, 12.2%
Description: as §3

[12] = molecular target: T3, full-length mouse CTLA4 expressed on …; test: flow cytometry, transfected HEK293F cells, antibody concentration not printed [Cont.]
Description: as §4

[13] = molecular target: T2, full-length human CTLA4 expressed on …; test: as above
Description: as §4

[14] = molecular target: T1, recombinant human CTLA4-Fc; test: BLI Octet, CTLA4-Fc on AHC sensor, Fab 10 ug/mL
Description: Proprietary phagemid libraries (see PCT application number PCT/CN2017/098333, incorporated herein by reference in its entirety; see also PCT application number PCT/CN2017/098299, incorporated herein by reference in its entirety) were employed to pan against human CTLA4 antigens. A total of 3-5 rounds of panning were conducted. After the final round of panning, single-colony supernatant ELISA was performed to identify the primary hits that specifically recognized human CTLA4 (see e.g., UniProt Accession Number P16410). The primary hits were defined as those whose ELISA signals were at least twice that of background. The hits were then sequenced, and the unique clones were expressed in E. coli and purified. Their affinities against human CTLA4 were measured by ForteBio Octet RED96 Systems. […] The acquired ForteBio data were processed with Data Acquisition software 7.1, and kinetic data were fitted to a 1:1 Langmuir binding model.

[15] = molecular target: mouse CTLA4 fused with human FC fragment (mouse, UniProt P09793 36-162, limits assumed); test: ELISA, captured Fab, CTLA4-Fc titrated

B1: TY22402 (antibody, IgG1, V domains shown)
VH: EVQLVESGGGLVQPGGSLRLSCAASGYSISSGYHWSWIRQAPGKGLEWLARIDWDDDKYYSTSLKSRLTISRDNSKNTLYLQLNSLRAEDTAVYYCARSYVYFDYWGQGTLVTVSS
VL: EVGSYIVHHSDCDAFYPYCDSSGRSAGGGGSPLGLAGSGGSDIQLTQSPSSLSASVGDRVTITCRASQSVRGRFLAWYQQKPGKAPKLLIYDASNRATGIPSRFSGSGSGTDFTLTISSLQPEDFATYYCQQSSSWPPTFGQGTKVEIKR
notes: IgG1; peptide fused to the N-terminus of the light chain of TY21580
- masking efficiency [1]: 554
- EC50 [2]: 54 nM
- EC50 [3]: 116 nM
- masking efficiency [4]: 243

B2: TY22404 (antibody, IgG1, V domains shown)
VH: B1 VH
VL: EVGSYPNPSSDCVPYYYACAYSGRSAGGGGSPLGLAGSGGSDIQLTQSPSSLSASVGDRVTITCRASQSVRGRFLAWYQQKPGKAPKLLIYDASNRATGIPSRFSGSGSGTDFTLTISSLQPEDFATYYCQQSSSWPPTFGQGTKVEIKR
notes: as for B1
- masking efficiency [1]: 572
- masking efficiency [5]: 469
- EC50 [2]: 68.4 nM
- EC50 [3]: 122 nM
- EC50 [6]: 117 nM
- masking efficiency [4]: 308
- masking efficiency [7]: 216
- EC50 [8]: 96.8 nM
- LogEC50 [8]: -7.01

B3: TY21589 (antibody, V domains shown)
VH: EVQLVESGGGLVQPGGSLRLSCAASGFTFSDYWIHWVRQAPGKGLEWIGWISPSGGGTKYAQKFQGRVTISRDNSKNTLYLQLNSLRAEDTAVYYCARGAYEFDYWGQGTLVTVSS
VL: DIQLTQSPSSLSASVGDRVTITCRASQSVSSRFLAWYQQKPGKAPKLLIYDASNRATGIPSRFSGSGSGTDFTLTISSLQPEDFATYYCQQSYPTPLTFGQGTKVEIK
notes: human IgG1 (hIgG1) from Fab hit B15740
- % of cells in upper right quadrant (CD80-positive) in the presence of the antibody [9]: 27.5%
- Mean of the CD80 binding signal in the presence of the antibody [9]: 110000
- binding result [10]: no binding (tested: not printed on the sheet)
- % of cells in upper right quadrant (CD86-positive) in the presence of the antibody [11]: 0.55%
- Mean of the CD86 binding signal in the presence of the antibody [11]: 6660
- % of cells in upper right quadrant (Q2) [12]: 1.36%
- % of cells in upper right quadrant (Q2) [13]: 29.7%

B4: B15740 (Fab, V domains shown)
VH: B3 VH
VL: DIQLTQSPSSLSASVGDRVTITCRASQSVSSRFLAWYQQKPGKAPKLLIYDASNRATGIPSRFSGSGSGTDFTLTISSLQPEDFATYYCQQSYPTPLTFGQGTKVEIKR
notes: Fab from E. coli; also called Fab hit of TY21589
- Kd [14]: 14.5 nM
- koff [14]: 0.00258 s⁻¹
- kon [14]: 178000 M⁻¹ s⁻¹
- binding result [15]: no binding
